Measured values published in patent publication US20170267766A1.

What was measured:
[1] = target: monkey IGF-1R (on COS-7 cells) (African green monkey); assay: FACS titration, Cos-7
[2] = target: human IGF-1R (native, on cells) (human) (UniProt P08069); assay: FACS titration, MCF-7
[3] = target: human IGF-1R (native, on cells) (human) (UniProt P08069); assay: cell-based or functional assay
[4] = target: soluble recombinant human IGF-1R hetero-tetramere with C-terminal 10-His tag (R&D Systems 305-GR) (human) (UniProt P08069); assay: SPR Biacore X100, Ln(2)/koff, mean of 4
[5] = target: soluble recombinant human IGF-1R hetero-tetramere with C-terminal 10-His tag (R&D Systems 305-GR) (human) (UniProt P08069); assay: SPR Biacore X100, His-captured h-IGF-1R ~600 RU, mean of 4
[6] = target: monkey IGF-1R (on COS-7 cells) (African green monkey); assay: FACS on COS-7 cells, 4°C; inset table, axis log [M] (Table 14b prints it rounded as 5.1E-10)
[7] = target: human IGF-1R (native, on cells) (human) (UniProt P08069); assay: FACS on MCF-7 cells, 4°C; inset table, axis log [M] (Table 14b prints it rounded as 7.09E-10)

- EC50 [1]: 510 pM
- EC50 [2]: 709 pM
- % internalization [3]: 87%
- ΔMFI (MCF-7, 10 µg/ml, 4 h) [3]: 344 MFI
- half-life of the complex [4]: 2 to 3 h
- Kd [5]: 60 pM
- EC50 [6]: 511 pM
- EC50 [7]: 710 pM
B1: hz208F2 H026/L024 (antibody, from a related filing, V domains shown)
VH: QVQLVQSGAEVKKPGASVKMSCKASGYTFTSYYIYWVKQAPGQGLEWLGWIWPGDGSTKYNEKFQGRVTLTADKSSNTAYMFLSSLRSEDTAVYFCASPMITPNYAMDYWGQGTLVTVSS
VL: DIQMTQSPSSLSASVGDRVTISCRASQDISKYLNWYQQKPGKAPKLLIYYTSRLHSGVPSRFSGRGSGTDYSLTISNLQPEDFATYFCQQGSTLPYTFGGGTKVEIKR
